Reference: US12383631B2, “Immune antigen specific IL-18 immunocytokines and uses thereof” (Bright Peak Therapeutics AG, priority 2022, dated 2025)

Legend:
NK92 cells = target: T1, NK92 cells (Homo sapiens, UniProt O95256+Q13478); assay: IFN gamma secretion assay in NK92 cells (Example 10); format: cell-based; conditions: 1 ng/ml IL-12, 16-20 h, read-out: EC50 IFNγ secretion NK92 assay
T1 sequence (Q13478 19-541): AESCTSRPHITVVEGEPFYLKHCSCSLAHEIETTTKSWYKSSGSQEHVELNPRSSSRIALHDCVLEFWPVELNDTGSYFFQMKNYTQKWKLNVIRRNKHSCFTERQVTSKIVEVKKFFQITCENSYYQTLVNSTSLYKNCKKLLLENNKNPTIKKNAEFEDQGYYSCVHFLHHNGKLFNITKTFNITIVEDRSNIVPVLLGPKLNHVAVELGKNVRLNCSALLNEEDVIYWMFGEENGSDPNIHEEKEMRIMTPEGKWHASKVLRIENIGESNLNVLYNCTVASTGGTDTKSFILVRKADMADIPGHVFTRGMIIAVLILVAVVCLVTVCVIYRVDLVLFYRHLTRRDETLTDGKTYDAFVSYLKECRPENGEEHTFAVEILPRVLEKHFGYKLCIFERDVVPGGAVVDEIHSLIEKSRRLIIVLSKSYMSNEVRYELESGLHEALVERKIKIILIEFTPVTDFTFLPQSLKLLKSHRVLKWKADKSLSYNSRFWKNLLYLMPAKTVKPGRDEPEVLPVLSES
T1 sequence (O95256 20-599): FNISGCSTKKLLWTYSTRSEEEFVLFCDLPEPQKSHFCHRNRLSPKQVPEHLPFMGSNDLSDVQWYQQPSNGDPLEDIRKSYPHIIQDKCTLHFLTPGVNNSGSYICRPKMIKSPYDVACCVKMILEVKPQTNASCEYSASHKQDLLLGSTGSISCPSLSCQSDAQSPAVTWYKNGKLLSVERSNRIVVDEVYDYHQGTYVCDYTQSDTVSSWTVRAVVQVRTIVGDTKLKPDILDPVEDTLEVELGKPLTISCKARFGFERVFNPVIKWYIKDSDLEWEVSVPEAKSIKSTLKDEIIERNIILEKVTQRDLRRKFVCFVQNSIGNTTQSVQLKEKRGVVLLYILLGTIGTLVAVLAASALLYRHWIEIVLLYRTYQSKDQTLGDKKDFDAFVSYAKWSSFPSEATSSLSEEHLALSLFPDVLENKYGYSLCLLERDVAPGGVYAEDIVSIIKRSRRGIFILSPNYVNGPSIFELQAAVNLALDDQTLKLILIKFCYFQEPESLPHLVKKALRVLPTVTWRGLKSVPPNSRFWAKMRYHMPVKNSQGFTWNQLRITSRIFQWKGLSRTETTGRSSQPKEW
Protocol: The IFNγ-secretion stimulating activity of the unconjugated IL-18 variants and corresponding IL-18 immunocytokines was evaluated on NK92 cell line. The NIK cell line NK-92 derived from a patient with lymphoma (ATCC, Cat #CRL-2407) was cultured in aMIEM medium supplemented with 12.5% FCS, 12.5% horse serum (HS), 50 uM B-mercaptoEthanol, and 2 ng/ml of recombinant Human Interleukin-2 (IL-2).
On the day of experiment, cells were harvested and washed with aNMEM medium without IL-2 and resuspended in medium (w/o IL-2) containing 1 ng/ml of recombinant human Interleukin-12 (Sinofliologicals, Cat #CT011-H08H). After counting, cells were seeded at 100 000 cells/well in a 384 well titer plate and incubated at 37° C./5% CO2. […]
After 16-20 h incubation at 37° C./5% CO2, 5 μl of supernatant were carefully transferred to a 384 microwells OPTIPlate (Perkin Elmer; Cat #6007270) and Interferon-gamma (IFNγ) levels measured using the Human IFNγ AlphaLISA Assay Kit (Perkin Elmer, Cat #AL217C). […] AlphaLisa signal was then measured on an Enspire plate reader (Perkin Elmer) using 680 and 615 nm as excitation and emission wavelengths respectively. Half maximal effective concentration (EC50) was calculated based on a variable slope, four parameter analysis using GraphPad PRISM software.

His-tagged human PD1 = His-tagged human PD1 (Homo sapiens, UniProt Q15116); assay: Bio-Layer Interferometry (BLI) binding kinetics to PD-1 (Example 6); conditions: AHC sensors, analyte His-tagged human PD1
His-tagged human PD1, sequence (Q15116 25-288): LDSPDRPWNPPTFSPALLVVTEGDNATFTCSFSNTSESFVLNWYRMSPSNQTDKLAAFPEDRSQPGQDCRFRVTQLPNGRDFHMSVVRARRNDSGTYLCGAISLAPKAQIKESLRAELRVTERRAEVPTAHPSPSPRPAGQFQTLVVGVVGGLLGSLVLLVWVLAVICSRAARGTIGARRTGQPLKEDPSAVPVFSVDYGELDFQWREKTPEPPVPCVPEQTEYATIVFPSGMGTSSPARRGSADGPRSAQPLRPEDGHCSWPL
Excerpt: Based on Bio-Layer Interferometry (BLI), Octet® BLI systems enable real-time, label-free analysis for the determination of kinetics and affinity of a ligands to its receptor. Here anti-human IgG FC Capture (AHC) sensors are loaded with the test items (ICs). Sensors are first dipped into a kinetic buffer for baseline measurement, then into an analyte solution, here human PD1, to allow association and again into a buffer solution where the analyte is allowed to come off the ligand (dissociation). Several concentrations of analyte are run in parallel and enable the calculation of affinity parameters: Ka, Kd, KD.
Typically, first, the sensors are regenerated by 3 cycles of dipping into 10 mM glycine solution at pH=2 for 20 seconds, followed by 20 second kinetics buffer and a final 60 seconds in kinetics buffer to establish the initial signal (baseline). Second, the loading column will contain the ligand, here the unmodified PD-1 antibodies and of IL-18 polypeptide conjugated PD-1 antibody, at a fixed concentration determined in the loading scout experiment (20 ug/mL). Then another wash/baseline step allows non immobilized proteins to be washed away. […] After acquisition, the data is analyzed with Data Analysis Studio software (Sartorius). […] Group fitting is then applied to the data series and kinetics parameters are calculated.

Row | EC50 (NK92 cells) [pM] | ka (His-tagged human PD1) [M⁻¹ s⁻¹] | kd (His-tagged human PD1) [s⁻¹] | Substance
1 | 1 | – | – | Composition B: immunocytokine: Atezolizumab/Tecentriq (anti-PD-L1) conjugated to IL-18 polypeptide SEQ ID NO: 30
2 | – | 342000 | 0.0077 | LZM-009: anti-PD-1 antibody (VH SEQ ID NO: 376, VL SEQ ID NO: 377), unconjugated reference antibody [reference compound]
